Measured values taken from article PMC11170971 (2024).

Experiments:
[1] = target: hTLR2 extracellular domain, purified recombinant (human, UniProt O60603 21-588); test: MST
[2] = target: T1, zTLR4ba extracellular domain, purified recombinant (zebrafish); test: MST
T1 chain: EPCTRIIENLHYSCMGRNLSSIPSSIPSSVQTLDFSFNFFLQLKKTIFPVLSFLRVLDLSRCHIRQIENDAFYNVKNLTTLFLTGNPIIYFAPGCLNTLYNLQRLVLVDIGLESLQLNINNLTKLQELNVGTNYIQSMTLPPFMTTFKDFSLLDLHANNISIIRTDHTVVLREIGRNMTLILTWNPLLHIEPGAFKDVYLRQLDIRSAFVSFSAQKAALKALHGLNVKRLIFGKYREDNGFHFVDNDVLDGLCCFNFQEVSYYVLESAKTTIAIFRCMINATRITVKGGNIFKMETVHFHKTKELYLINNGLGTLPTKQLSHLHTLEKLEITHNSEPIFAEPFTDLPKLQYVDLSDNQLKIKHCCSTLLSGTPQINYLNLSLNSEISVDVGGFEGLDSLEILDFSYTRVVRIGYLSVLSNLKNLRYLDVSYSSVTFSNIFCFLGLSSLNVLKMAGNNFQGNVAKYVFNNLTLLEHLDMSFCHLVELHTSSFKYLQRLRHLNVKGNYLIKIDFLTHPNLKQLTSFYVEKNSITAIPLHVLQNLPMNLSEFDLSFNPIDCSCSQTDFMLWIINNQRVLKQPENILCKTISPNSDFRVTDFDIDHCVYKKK

hTLR2 extracellular domain, purified recombinant, sequence (O60603 21-588): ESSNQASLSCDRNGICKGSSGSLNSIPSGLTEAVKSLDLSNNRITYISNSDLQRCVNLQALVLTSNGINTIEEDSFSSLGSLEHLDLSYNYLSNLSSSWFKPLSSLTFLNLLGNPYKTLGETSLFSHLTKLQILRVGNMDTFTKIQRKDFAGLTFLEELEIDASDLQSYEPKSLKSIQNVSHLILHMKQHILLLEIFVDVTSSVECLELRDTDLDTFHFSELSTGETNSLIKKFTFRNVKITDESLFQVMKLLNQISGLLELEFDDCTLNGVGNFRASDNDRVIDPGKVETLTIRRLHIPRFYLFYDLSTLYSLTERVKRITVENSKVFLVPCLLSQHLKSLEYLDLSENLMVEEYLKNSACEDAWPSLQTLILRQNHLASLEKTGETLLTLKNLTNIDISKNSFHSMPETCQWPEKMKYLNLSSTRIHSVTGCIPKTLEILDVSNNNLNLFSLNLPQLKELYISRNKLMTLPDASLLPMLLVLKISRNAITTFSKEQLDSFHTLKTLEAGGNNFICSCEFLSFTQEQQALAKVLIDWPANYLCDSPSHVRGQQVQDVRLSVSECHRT

Kd [1]: 190 nM
Kd [2]: 2980 nM
B1: recombinant His-tagged SpaC protein (SpaC pilin subunit of Lactobacillus rhamnosus GG) (natural protein)
chain: MTAKVARTGHLFAVLLILMSMLTGLVTSGSSVVTATDNIRPTYQTDANGTYPTNSWQVTGQQNVINQRGGDQVSGWDNNTIWNGDATDTTNSYLKFGDPNNPDYQIRKYAKETNTPGLYDVYLNVKGNKQQNVKPVDIVLVVDMSGSMESNRWGTNRAGAVRTGVKNFLTSIQNAGLGNYVNVGLIGFSSPGYIGGKSGYISVKLGKAGNASQQQAINGALSPRFQGGTYTQIGLRQGSAMLNADTSGNKKMMILLTDGVPTFSNEVINSEWINGTLYGTNFGSSRDEPGNTARLRWPYTDSSGHYIYDTWPATLGEAKIAKDSGNEVHALGIQLADDDHYMTKEKIRQNMQLITNSPDLYEDADSADAVEAYLNNQAKDIIKNFNTVTDGTITDPIGTQFQYANNQATVTSVGKQTVPASELPSAAIQDGQLTVNHMNLGQDQEVQIHYQVRIKTEDAGFKPDFWYQMNGETLLTPKAGAAAVDFGIPSGRAPATTVYVQKQWRQLSNQSLPDTLNVTVQRKVADGSLDPNWQQTLVLKKADNWKASFTAPAYNNQGQSFSYVVKSEDASGIDLSSFISSQNMDQQTATLTLTNQQYGFQFQKKTTDGTDLSADQLKAMQFNLTQYSDNSFQQASKTNAITSTDLQALAPGYYGIQEAAAPTGYQLDGTTYLFQLTSDGQWQYHGTKDNVTSGSVINGQQTLNPVGDKSDDFTVTGDHQQILTLTKYDEPKPSMTLRVIKQDNQSQYLAGAAFTLQPSAGEAETITSSATSEGQAFATKLVADGTYTMSETKAPDGYQSNPAKIAIQVATTGKEATVTIDGEALKPGESKNGYTLAIDGSTITLQAINQPLAILPHTGGQGYQRLLGIALGLISAAFLLLLVVLIKRRVVKQHD
modifications: labelled with Monolith Protein Labeling Kit Red-NHS (in the MST only)
